Experimental findings from patent US20220412975 are described below.

Data set [1] has as its target T1, COMP2 candidate peptide, (Donor) SPGFRC(Acm)EAC(Acm)PPGYS (K-Quencher).
T1 chain: SPGFRCEACPPGYS

In data set [2] the target is T2, TSP1-2 substrate, (HiLyteFluor-488)-SSMVLELRGLRTIVT-K(QXL520)-NH2.
T2 chain: SSMVLELRGLRTIVTK

The target in data set [3] is T3, TSP1-5 substrate, (HiLyteFluor-488)-SSMVLELRGLRT-K(QXL520)-NH2.
T3 chain: SSMVLELRGLRTK

Data set [4] concerns the target T4, COMP1 candidate peptide, (Donor) GMQQSVRTGLPS (K-Quencher).
T4 chain: GMQQSVRTGLPS

Data set [5] addresses T5, TSP1-1 substrate, (HiLyteFluor-488)-DELSSMVLELRGLRT-K(QXL520)-NH2.
T5 chain: DELSSMVLELRGLRTK

Data set [6] deals with T6, TSP1-4 substrate, (HiLyteFluor-488)-EENKELANELRRPPL-K(QXL520)-NH2.
T6 chain: EENKELANELRRPPLK

Data set [7] addresses T7, TSP1-3 substrate, (HiLyteFluor-488)-KVTEENKELANELRR-K(QXL520)-NH2.
T7 chain: KVTEENKELANELRRK

In data set [8] the target is T8, (HiLyteFluor-488)-DELSSMVLELRGLRT-K(QXL520)-E-NH2.
T8 chain: DELSSMVLELRGLRTK

B1: purified ADAMTS-7 E389Q catalytic inactive proteins (protein)
chain: SVSKEKWVETLVVADAKMVEYHGQPQVESYVLTIMNMVAGLFHDPSIGNPIHITIVRLVLLEDEEEDLKITHHADNTLKSFCKWQKSINMKGDAHPLHHDTAILLTRKDLCAAMNRPCETLGLSHVAGMCQPHRSCSINEDTGLPLAFTVAHQLGHSFGIQHDGSGNDCEPVGKRPFIMSPQLLYDAAPLTWSRCSRQYITRFLDRGWGLCLDDPPAKDIIDFPSVPPGVLYDVSHQCRLQYGAYSAFCEDMDNVCHTLWCSVGTTCHSKLDAAVDGTRCGENKWCLSGECVPVGFRPEAV
On to B1, for which the “FRET peptide cleavage (Relative Fluorescence Units over time)” value in data set [1], in data set [2], in data set [3], in data set [4], in data set [5] and in data set [6] was “Significant activity was not observed with substrates ... with incubation with purified ADAMTS-7 E389Q catalytic inactive proteins (data not shown” in each case. For the same protein, the “FRET peptide cleavage (Relative Fluorescence Units over time)” value in data set [7] is “Significant activity was not observed with substrates ... with incubation with purified ADAMTS-7 E389Q catalytic inactive proteins (data not shown”.

B2: rADAMTS-7 (Rat 1-575)-Flag (protein)
chain: LPTEGRAGLDIVHPVRVDAGGSFLSYELWPRVLRKRDVSAAQASSAFYQLQYQGRELLFNLTTNPYLLAPGFVSEIRRRSNLSNVHIQTSVPTCHLLGDVQDPELEGGFAAISACDGLRGVFQLSNEDYFIEPLDEVPAQPGHAQPHMVYKHKRSGQQDDSRTSGTCGVQGSPELKHQREHWEQRQQKRRQQRSISKEKWVETLVVADSKMVEYHGQPQVESYVLTIMNMVAGLYHDPSIGNPIHITVVRLIILEDEEKDLKITHHADDTLKNFCRWQKNVNMKGDDHPQHHDTAILLTRKDLCATMNHPCETLGLSHVAGLCHPQLSCSVSEDTGLPLAFTVAHELGHSFGIQHDGTGNDCESIGKRPFIMSPQLLYDRGIPLTWSRCSREYITRFLDRGWGLCLDDRPSKGVINFPSVLPGVLYDVNHQCRLQYGPSSAYCEDVDNVCYTLWCSVGTTCHSKMDAAVDGTSCGKNKWCLNGECVPEGFQPETVDGGWSGWSAWSVCSRSCGVGVRSSERQCTQPVPKNKGKYCVGERKRYRLCNLQACPENLYFQGDYKDDDDK
For the protein B2, the kcat in data set [1] worked out at 8.33e-06 s⁻¹; in data set [2], 0.000128 s⁻¹; in data set [3], 4.17e-05 s⁻¹; in data set [4] it was 8.17e-06 s⁻¹; in data set [5], 0.000167 s⁻¹; in data set [6], 4.33e-05 s⁻¹. The kcat in data set [7] came to 2.33e-05 s⁻¹. For the same protein, the “FRET peptide cleavage (Relative Fluorescence Units over time)” value was “along with S2 and S5 peptides containing the E289⬇L290 cleavage site” in data set [2]; “along with S2 and S5 peptides containing the E289⬇L290 cleavage site” in data set [3]; “Activity data from the rat ADAMTS-7 construct identified TSP1 S1 (SEQ ID NO: 4) as the substrate” in data set [5].

B3: Rat/human ADAMTS-12 chimera, rPro-hCD (Rat 1-244/Human 241-543)-3xFLAG (protein)
chain: HGRQAQPWPVRFPDPKQEHFIKSLPEYHIVSPVQVDASGHFLSYGLHHPVTGSRKKRAAGGSGDQVYYRISHEEKNLFFNLTVNWEFLSNGYVVERRYGNLSHVKMAASSGQPCHLRGTVLQQGPTIRMGTAALSACQGLTGFFHLPHGDFFIEPVKKHPLTEEGYQPHVIYRRQSYRVPETKEPTCGLKDSLDNSVKQELQREKWERKNWPSRSLSRRSISKERWVETLVVADTKMIEYHGSENVESYILTIMNMVTGLFHNPSIGNAIHIVVVRLILLEEEEQGLKIVHHAEKTLSSFCKWQKSINPKSDLNPVHHDVAVLLTRKDICAGFNRPCETLGLSHLSGMCQPHRSCNINEDSGLPLAFTIAHELGHSFGIQHDGKENDCEPVGRHPYIMSRQLQYDPTPLTWSKCSEEYITRFLDRGWGFCLDDIPKKKGLKSKVIAPGVIYDVHHQCQLQYGPNATFCQEVENVCQTLWCSVKGFCRSKLDAAADGTQCGEKKWCMAGKCITVGKKPESIPGGGGSDYKDHDGDYKDHDIDYKDDDDK
As to B3, in data set [8], the “FRET peptide cleavage (increase of fluorescence intensity)” value is “It was surprisingly found that the same substrate could be used for the paralogs ADAMTS-7 and ADAMTS-12”.

As usually defined, the kcat is the number of substrate molecules converted per active site and unit of time at saturation.
